Data on 3 molecules can be found in patent US20190292266A1.

By Kd is commonly meant the free concentration of one partner at which half of the binding sites on the other are occupied at equilibrium, for simple one-to-one binding. Read a high Kd as lower affinity. In general, koff refers to a measure of how fast the partners let go of each other. A high value points to a short-lived complex. As a reminder, the kon is the rate constant with which the complex forms. Read a high kon as fast association.

One assay concerns the target CD3 (Example 7). The assay is described as follows: SPR, biotinylated CD3 on SA chip, Langmuir 1:1. (In SPR one partner is held on a chip, and binding of the other changes the refractive index at the surface.)
Assay [1] concerns the target PD1 (immobilized target, Example 7). The assay is described as follows: SPR, PD1 immobilized on CM5 chip, Langmuir 1:1.

Chain of CD3 (Example 7) (P22646 22-108): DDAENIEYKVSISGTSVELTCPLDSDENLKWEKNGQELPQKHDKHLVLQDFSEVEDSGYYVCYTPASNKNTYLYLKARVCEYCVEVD

B1: 145-2C11 Fab CL 128187 (bispecific antibody)
heavy: EVQLVESGGGLVQPGKSLKLSCEASGFTFSGYGMHWVRQAPGRGLESVAYITSSSINIKYADAVKGRFTVSRDNAKNLLFLQMNILKSEDTAMYYCARFDWDKNYWGQGTMVTVSSAKTTAPSVYPLAPACDSTTSTTNTVTLGCLVKGYFPEPVTVIWNSGALTSGVHTFPSVLHSGLYSLSSSVTVPSSTWPSQTVTCNVAHPASSTTVDLKIE
light: not shown
modifications: not checked
In the assay with CD3 (Example 7), B1 gave a Kd of 3.92 nM, a koff of 0.0015 s⁻¹ and a kon of 381000 M⁻¹ s⁻¹. In assay [1], this molecule had a Kd of 36.2 nM, a koff of 0.000282 s⁻¹ and an on-rate constant (kon) of 7780 M⁻¹ s⁻¹.

B2: 145-2C11 Fab NH 128187 (bispecific antibody)
heavy: not shown
light: DIQMTQSPSSLPASLGDRVTINCQASQDISNYLNWYQQKPGKAPKLLIYYTNKLADGVPSRFSGSGSGRDSSFTISSLESEDIGSYYCQQYYNYPWTFGPGTKLEIKRADAKPTVSIFPPSSEQLGTGSATLVCFVNNFYPKDINVKWKVDGSEKRDGVLQSVTDQDSKDSTYSLSSTLSLTKADYERHNLYTCEVTHKTSTAAIVKTLNRNEC
modifications: not checked
B2: in the assay with CD3 (Example 7), the Kd came to 10.8 nM, the koff is 0.00306 s⁻¹ and the kon was 284000 M⁻¹ s⁻¹. In assay [1], the Kd was determined as 4.61 nM, the koff came to 0.000229 s⁻¹ and the kon came out at 49600 M⁻¹ s⁻¹.

B3: 145-2C11 Fab CH 128187 (bispecific antibody)
heavy: not shown
light: DIQMTQSPSSLPASLGDRVTINCQASQDISNYLNWYQQKPGKAPKLLIYYTNKLADGVPSRFSGSGSGRDSSFTISSLESEDIGSYYCQQYYNYPWTFGPGTKLEIKRADAKPTVSIFPPSSEQLGTGSATLVCFVNNFYPKDINVKWKVDGSEKRDGVLQSVTDQDSKDSTYSLSSTLSLTKADYERHNLYTCEVTHKTSTAAIVKTLNRNEC
modifications: not checked
In the assay with CD3 (Example 7), B3 displayed a Kd of 2.14 nM, a koff of 0.00126 s⁻¹ and a kon of 587000 M⁻¹ s⁻¹. For the same molecule, in assay [1], the Kd turned out to be 686 nM, the koff was determined as 9.45e-05 s⁻¹ and the kon came to 138 M⁻¹ s⁻¹.
